Publication PMC9482650, “Quantitative fragmentomics allow affinity mapping of interactomes” (Nature Communications, 2022)

T1: PDZRN3_2, Q9UPQ7
T1 sequence (Q9UPQ7 414-513, limits assumed, looked up): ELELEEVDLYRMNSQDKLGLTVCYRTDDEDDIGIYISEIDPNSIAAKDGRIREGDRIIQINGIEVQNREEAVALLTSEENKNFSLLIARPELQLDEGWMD

T2: LIN7C, Q9NUP9
T2 sequence (Q9NUP9 88-185, limits assumed, looked up): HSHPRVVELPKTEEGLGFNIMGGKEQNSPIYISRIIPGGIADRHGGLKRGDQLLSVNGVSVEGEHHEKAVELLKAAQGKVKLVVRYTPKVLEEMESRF

T3: PDZD2_1, O15018
T3 sequence (O15018 80-192, limits assumed, looked up): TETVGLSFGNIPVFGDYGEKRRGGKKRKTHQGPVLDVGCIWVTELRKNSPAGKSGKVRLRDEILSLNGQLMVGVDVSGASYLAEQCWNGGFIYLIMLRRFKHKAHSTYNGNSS

T4: PARD6G, Q9BYG4
T4 sequence (Q9BYG4 153-261, limits assumed, looked up): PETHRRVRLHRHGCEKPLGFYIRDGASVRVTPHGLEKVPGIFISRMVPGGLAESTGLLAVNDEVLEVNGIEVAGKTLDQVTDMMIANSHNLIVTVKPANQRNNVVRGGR

T5: MPP5, Q8N3R9
T5 sequence (Q8N3R9 251-346, limits assumed, looked up): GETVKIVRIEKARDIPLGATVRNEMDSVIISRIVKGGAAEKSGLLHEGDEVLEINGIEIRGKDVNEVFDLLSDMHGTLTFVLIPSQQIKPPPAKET

T6: USH1C_3, Q9Y6N9
T6 sequence (Q9Y6N9 447-547, limits assumed, looked up): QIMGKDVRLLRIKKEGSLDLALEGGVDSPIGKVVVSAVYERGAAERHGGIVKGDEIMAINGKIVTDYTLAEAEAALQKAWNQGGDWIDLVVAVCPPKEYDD

T7: PDZD11, Q5EBL8
T7 sequence (Q5EBL8 42-139, limits assumed, looked up): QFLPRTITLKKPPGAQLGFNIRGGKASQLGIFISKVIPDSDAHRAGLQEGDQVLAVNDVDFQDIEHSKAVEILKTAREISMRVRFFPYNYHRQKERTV

T8: MPDZ_7, O75970
T8 sequence (O75970 1146-1253, limits assumed, looked up): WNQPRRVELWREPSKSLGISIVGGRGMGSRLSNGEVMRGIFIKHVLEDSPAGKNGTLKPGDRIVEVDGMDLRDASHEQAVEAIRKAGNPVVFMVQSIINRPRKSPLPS

T9: PDLIM3, Q53GG5
T9 sequence (Q53GG5 1-94, limits assumed, looked up): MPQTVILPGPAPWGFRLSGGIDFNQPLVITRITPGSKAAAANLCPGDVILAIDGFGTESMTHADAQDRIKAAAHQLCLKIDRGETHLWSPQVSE

T10: NHERF3_2, Q5T2W1
T10 sequence (Q5T2W1 129-225, limits assumed, looked up): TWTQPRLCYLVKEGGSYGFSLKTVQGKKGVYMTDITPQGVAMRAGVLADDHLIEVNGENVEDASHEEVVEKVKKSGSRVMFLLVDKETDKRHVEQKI

T11: DFNB31_2, Q9P202
T11 sequence (Q9P202 274-371, limits assumed, looked up): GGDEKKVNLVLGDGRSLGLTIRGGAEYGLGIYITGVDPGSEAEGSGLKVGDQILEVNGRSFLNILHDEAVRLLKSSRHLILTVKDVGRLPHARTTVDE

T12: USH1C_1, Q9Y6N9
T12 sequence (Q9Y6N9 82-179, limits assumed, looked up): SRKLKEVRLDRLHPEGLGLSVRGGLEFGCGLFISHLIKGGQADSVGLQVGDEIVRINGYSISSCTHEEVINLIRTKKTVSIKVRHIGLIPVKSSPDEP

T13: MPDZ_3, O75970
T13 sequence (O75970 372-473, limits assumed, looked up): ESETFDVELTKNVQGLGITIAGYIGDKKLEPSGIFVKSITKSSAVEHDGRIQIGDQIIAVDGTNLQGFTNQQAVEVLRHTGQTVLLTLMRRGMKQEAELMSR

T14: SYNPO2L, Q9H987
T14 sequence (Q9H987 1-98, limits assumed, looked up): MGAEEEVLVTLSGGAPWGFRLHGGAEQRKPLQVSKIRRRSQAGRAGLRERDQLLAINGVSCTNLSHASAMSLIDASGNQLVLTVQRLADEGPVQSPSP


These binders were tested against T1, PDZRN3_2, Q9UPQ7 (assay: holdup assay). Conditions: plain residues with an end cap or a label only (N-terminal biotin on a linker: none).
In the case of DSKPPLPPDEWV [MERS-E, K9N5R3], the pKd is reported as “below the threshold”.

The binders below were run against T2, LIN7C, Q9NUP9 (assay: holdup assay). Conditions: plain residues with an end cap or a label only (N-terminal biotin on a linker: none).
For DSKPPLPPDEWV [MERS-E, K9N5R3], the pKd was “below the threshold”.

These binders were tested against T3, PDZD2_1, O15018 (assay: holdup assay). Conditions: plain residues with an end cap or a label only (N-terminal biotin on a linker: none).
DSKPPLPPDEWV [MERS-E, K9N5R3] was tested, and the pKd was “below the threshold”.

What follows are binders tested against T4, PARD6G, Q9BYG4 (assay: holdup assay). Conditions: plain residues with an end cap or a label only (N-terminal biotin on a linker: none).
With DSKPPLPPDEWV [MERS-E, K9N5R3] the pKd was “below the threshold”.

These binders were tested against MAGI3_6, Q5TCQ9 (assay: holdup assay). Conditions: plain residues with an end cap or a label only (N-terminal biotin on a linker: none).
Sequence of MAGI3_6, Q5TCQ9 (Q5TCQ9 1014-1103): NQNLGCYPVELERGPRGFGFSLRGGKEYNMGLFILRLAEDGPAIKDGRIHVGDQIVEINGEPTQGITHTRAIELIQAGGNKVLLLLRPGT
In the case of DSKPPLPPDEWV [MERS-E, K9N5R3], the pKd is reported as 4.03.

These binders were tested against T5, MPP5, Q8N3R9 (assay: holdup assay). Conditions: plain residues with an end cap or a label only (N-terminal biotin on a linker: none).
DSKPPLPPDEWV [MERS-E, K9N5R3] was tested, and the pKd was 4.03.

Each binder was assayed against T6, USH1C_3, Q9Y6N9 (assay: holdup assay). Conditions: plain residues with an end cap or a label only (N-terminal biotin on a linker: none).
DSKPPLPPDEWV [MERS-E, K9N5R3] was tested, and the pKd was “below the threshold”.

What follows are binders tested against T7, PDZD11, Q5EBL8 (assay: holdup assay). Conditions: plain residues with an end cap or a label only (N-terminal biotin on a linker: none).
For DSKPPLPPDEWV [MERS-E, K9N5R3], the pKd was “below the threshold”.

The binders below were run against T8, MPDZ_7, O75970 (assay: holdup assay). Conditions: plain residues with an end cap or a label only (N-terminal biotin on a linker: none).
DSKPPLPPDEWV [MERS-E, K9N5R3] was tested, and the pKd was 3.83.

What follows are binders tested against PDZRN4_2, Q6ZMN7 (assay: holdup assay). Conditions: plain residues with an end cap or a label only (N-terminal biotin on a linker: none).
Sequence of PDZRN4_2, Q6ZMN7 (Q6ZMN7 389-498): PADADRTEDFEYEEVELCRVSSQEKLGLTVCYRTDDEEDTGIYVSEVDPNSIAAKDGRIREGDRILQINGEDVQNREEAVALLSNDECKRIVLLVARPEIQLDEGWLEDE
DSKPPLPPDEWV [MERS-E, K9N5R3] was tested, and the pKd was 3.75.

Each binder was assayed against T9, PDLIM3, Q53GG5 (assay: holdup assay). Conditions: plain residues with an end cap or a label only (N-terminal biotin on a linker: none).
In the case of DSKPPLPPDEWV [MERS-E, K9N5R3], the pKd is reported as “below the threshold”.

These binders were tested against T10, NHERF3_2, Q5T2W1 (assay: holdup assay). Conditions: plain residues with an end cap or a label only (N-terminal biotin on a linker: none).
For DSKPPLPPDEWV [MERS-E, K9N5R3], the pKd was “below the threshold”.

What follows are binders tested against T11, DFNB31_2, Q9P202 (assay: holdup assay). Conditions: plain residues with an end cap or a label only (N-terminal biotin on a linker: none).
DSKPPLPPDEWV [MERS-E, K9N5R3] was tested, and the pKd was “below the threshold”.

Each binder was assayed against NHERF2_1, Q15599 (assay: holdup assay). Conditions: plain residues with an end cap or a label only (N-terminal biotin on a linker: none).
Sequence of NHERF2_1, Q15599 (Q15599 9-91): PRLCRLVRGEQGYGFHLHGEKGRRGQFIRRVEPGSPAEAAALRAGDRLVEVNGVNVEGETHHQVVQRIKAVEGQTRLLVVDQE
For DSKPPLPPDEWV [MERS-E, K9N5R3], the pKd was “below the threshold”.

These binders were tested against T12, USH1C_1, Q9Y6N9 (assay: holdup assay). Conditions: plain residues with an end cap or a label only (N-terminal biotin on a linker: none).
For DSKPPLPPDEWV [MERS-E, K9N5R3], the pKd was “below the threshold”.

Each binder was assayed against Inadl_7, Q8NI35 (assay: holdup assay). Conditions: plain residues with an end cap or a label only (N-terminal biotin on a linker: none).
Sequence of Inadl_7, Q8NI35 (Q8NI35 1219-1332): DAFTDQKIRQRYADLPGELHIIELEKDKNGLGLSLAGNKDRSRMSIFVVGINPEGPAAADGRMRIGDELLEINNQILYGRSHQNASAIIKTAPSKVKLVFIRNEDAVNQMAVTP
For DSKPPLPPDEWV [MERS-E, K9N5R3], the pKd was “below the threshold”.

These binders were tested against PTPN13_2, Q12923 (assay: holdup assay). Conditions: plain residues with an end cap or a label only (N-terminal biotin on a linker: none).
Sequence of PTPN13_2, Q12923 (Q12923 1363-1462): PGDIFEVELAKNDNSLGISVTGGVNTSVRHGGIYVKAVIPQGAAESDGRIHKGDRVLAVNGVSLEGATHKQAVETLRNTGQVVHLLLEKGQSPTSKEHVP
For DSKPPLPPDEWV [MERS-E, K9N5R3], the pKd was 4.35.

What follows are binders tested against RIMS2, Q9UQ26 (assay: holdup assay). Conditions: plain residues with an end cap or a label only (N-terminal biotin on a linker: none).
Sequence of RIMS2, Q9UQ26 (Q9UQ26 637-758): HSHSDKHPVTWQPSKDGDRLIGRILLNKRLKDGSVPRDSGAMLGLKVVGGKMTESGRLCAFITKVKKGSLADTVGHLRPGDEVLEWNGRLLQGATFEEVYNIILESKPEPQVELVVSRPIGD
DSKPPLPPDEWV [MERS-E, K9N5R3] gave a pKd of 4.39.

These binders were tested against MAGI3_4, Q5TCQ9 (assay: holdup assay). Conditions: plain residues with an end cap or a label only (N-terminal biotin on a linker: none).
Sequence of MAGI3_4, Q5TCQ9 (Q5TCQ9 716-815): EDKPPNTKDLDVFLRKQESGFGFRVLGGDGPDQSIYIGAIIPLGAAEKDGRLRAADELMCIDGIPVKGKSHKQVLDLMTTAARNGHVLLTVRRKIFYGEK
In the case of DSKPPLPPDEWV [MERS-E, K9N5R3], the pKd is reported as “below the threshold”.

What follows are binders tested against T13, MPDZ_3, O75970 (assay: holdup assay). Conditions: plain residues with an end cap or a label only (N-terminal biotin on a linker: none).
With DSKPPLPPDEWV [MERS-E, K9N5R3] the pKd was “below the threshold”.

The binders below were run against CNKSR3, Q6P9H4 (assay: holdup assay). Conditions: plain residues with an end cap or a label only (N-terminal biotin on a linker: none).
Sequence of CNKSR3, Q6P9H4 (Q6P9H4 203-303): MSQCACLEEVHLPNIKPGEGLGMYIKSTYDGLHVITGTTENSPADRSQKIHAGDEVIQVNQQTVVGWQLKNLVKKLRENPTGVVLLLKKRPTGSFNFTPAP
With DSKPPLPPDEWV [MERS-E, K9N5R3] the pKd was “below the threshold”.

The binders below were run against DVL2, O14641 (assay: holdup assay). Conditions: plain residues with an end cap or a label only (N-terminal biotin on a linker: none).
Sequence of DVL2, O14641 (O14641 260-359): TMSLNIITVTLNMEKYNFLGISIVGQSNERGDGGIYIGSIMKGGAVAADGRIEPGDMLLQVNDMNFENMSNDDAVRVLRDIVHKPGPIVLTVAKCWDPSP
With DSKPPLPPDEWV [MERS-E, K9N5R3] the pKd was “below the threshold”.

The binders below were run against T14, SYNPO2L, Q9H987 (assay: holdup assay). Conditions: plain residues with an end cap or a label only (N-terminal biotin on a linker: none).
For DSKPPLPPDEWV [MERS-E, K9N5R3], the pKd was 4.16.
